According to the supplement of paper PMC10567573:
± gives the standard deviation.

Assay: protein stability index of a GFP-peptide fusion (GPS, HEK-293T) (PSI 1-6); higher = more stable
[1] = treatment: DMSO, c terminus: a fixed tail appended
[2] = treatment: MLN4924 1 uM, 8 h, c terminus: a fixed tail appended
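Also: 24-mer peptide tiles fused after GFP, lentivirally expressed, FACS-sorted into six equal bins by GFP/DsRed ratio, decoded by Illumina sequencing, PSI is the read-weighted mean bin number.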

Sequence | protein stability index [1] | protein stability index [2] | protein stability index (treatment: DMSO, c terminus: native) | protein stability index (treatment: MLN4924 1 uM, 8 h, c terminus: native)
DQSDEGSSSQKEESPSTLQVLPDS [MAGEA10] | 5.66 ± 0.21 | 5.56 ± 0.16 | – | –
YDPNYMSPFAQFACDNGLNVRGGK [PPTC7] | 3.63 ± 1 | 4.11 ± 0.43 | – | –
AEGRTGFPWIDAIMTQLRQEGWIH [CRY1] | 2.35 ± 0.3 | 2.13 ± 0.33 | – | –
QVLFDKVCEHLNLLEKDYFGLTYR [EPB41L3] | 2.4 ± 0.13 | 2.55 ± 0.28 | – | –
DYLDLDKMSLYSEADSGYGSYGGF [TRIM9] | 2.46 ± 0.51 | 2.77 ± 0.24 | – | –
KMLRKEAAARCVVLDCRPYLAFAA [DUSP5] | 2.77 ± 0.63 | 2.51 ± 0.44 | – | –
TVGGEERVSRKPTAAMRCMCPLYD [GAN] | 3.3 ± 0.21 | 3.46 ± 0.49 | – | –
PGAGDPAPGIGPPEPWPGGCTGDE [MYCL] | 5.38 ± 0.057 | 5.16 ± 0.43 | – | –
SRIYGQAMAIINGSLYVFGGTTGY [KLHDC10] | 2.92 ± 0.3 | 2.87 ± 0.6 | – | –
RNVTGTPLTGDKDDEEVDTHFASQ [ADAMTSL2] | 5.5 ± 0.22 | 5.32 ± 0.27 | – | –
LEATVKKLEESKQLLKNNEKLITW [SASS6] | 2.73 ± 1.2 | 3.44 ± 0.62 | – | –
NGEYVPWLYCYDPVMDVWARKQDM [KLHL14] | 2.49 ± 0.09 | 2.57 ± 0.21 | – | –
EKMALDPYTELRKQPLRKYVTPSD [EFHC1] | 4.03 ± 0.29 | 3.95 ± 0.064 | – | –
QDPQLHSPFSGSLHAPPAFYSTSS [VENTX] | 3.65 ± 0.2 | 3.75 ± 0.28 | – | –
AQYDSWPHYPEYFQQPAPEYHQPQ [LOXL2] | 3.62 ± 0.48 | 3.8 ± 0.49 | – | –
SLQFDEKCLSIMLAEWEANPLICP [RPAIN] | 2.33 ± 0.24 | 2.29 ± 0.18 | – | –
IEEDMNNSIAHYRQVNIRTANCTT [KCNA1] | 3.71 ± 0.55 | 3.57 ± 0.48 | – | –
HCAAVTPAGCMYIHGGVVNIHENK [KLHDC10] | 2.86 ± 0.098 | 3.12 ± 0.49 | – | –
KKSGEKEQHISKCKKAFREGSRKS [KMT2E] | 4.23 ± 0.78 | 4.61 ± 0.27 | – | –
EDVRIFFYQSPYDSEQVPQALRRL [NCF4] | 2.79 ± 0.31 | 2.98 ± 0.4 | – | –
CPLLLGSVMAIERCIGVTKPIFHS [PTGFR] | 2.78 ± 0.87 | 2.77 ± 0.68 | – | –
MARPLVPSSQKALLLELKGLQEEP [CDC34] | 4.06 ± 0.13 | 3.98 ± 0.33 | – | –
TGRFSFTLPYPVKIKVRFSFFLQI [HACD3] | 3.14 ± 0.37 | 2.92 ± 0.17 | – | –

Sequence | protein stability index [1] | protein stability index [2] | protein stability index (treatment: DMSO, c terminus: native) | protein stability index (treatment: MLN4924 1 uM, 8 h, c terminus: native)
YRRVNELLLSILNPTRQDESIQRI [ZER1] | 2.46 ± 0.14 | 2.66 ± 0.53 | – | –
PFDGLLEERALLLGRMGKHEQALF [VPS39] | 2.59 ± 0.28 | 2.67 ± 0.37 | – | –
DSVSVNDIDLSLYIPRDVDETGIT [ZC3H15] | 3.76 ± 0.15 | 4.36 ± 0.11 | – | –
HFKKQTIYRFLKLHPRGKNNFSPL [FEM1C] | 2.71 ± 0.32 | 1.96 ± 0.14 | – | –
GELGSIGDHERAIDFSPYLEPLGA [CEBPB] | 4.21 ± 0.6 | 4.18 ± 0.32 | – | –
TSSAKVDMTFEEEAQLLQLKVKCL [FKBP8] | 3.48 ± 0.28 | 3.54 ± 0.33 | – | –
VPVRRPARRRQSAGPWPRPKGSLS [RASAL3] | 4.73 ± 0.25 | 4.68 ± 0.23 | – | –
ESQVKSLCEKAKEILTKESNVQEV [PPP2CA] | 5.45 ± 0.11 | 5.18 ± 0.18 | – | –
SLRKGASLSNGQGSRVLHVVQTLY [NCK2] | 2.29 ± 0.26 | 2.57 ± 0.11 | – | –
EEDKRRKGEEVTPISAIRHEGKTD [EPB41L3] | 5.59 ± 0.23 | 5.66 ± 0.13 | – | –
SIQWPGKRSSRRVQRHNSFSPNSP [NECAB1] | 3.54 ± 0.27 | 3.62 ± 0.23 | – | –
LNMAKKSVDIVSSHWDLNHTHPSA [PLD5] | 3.1 ± 0.3 | 3.2 ± 0.28 | – | –
CADVLFILQDQEHIFAHRIYLATS [RHOBTB1] | 2.93 ± 0.44 | 2.89 ± 0.48 | – | –
RFAWPKVLKISYKRNNFYIKIRPG [EPB41L3] | 2.89 ± 0.63 | 2.2 ± 0.82 | – | –
EELAPVGTAHIPPTMHLESPALQV [ZNF449] | 4.18 ± 0.27 | 4.33 ± 0.091 | – | –
TPPPSPNTQTPVQPPPPPPPPPMQ [CCDC6] | 5.12 ± 0.084 | 5.26 ± 0.25 | – | –
QELQIDDNEYAYLKAIIFFDPDAK [HNF4A] | 2.53 ± 0.22 | 2.72 ± 0.21 | – | –
PPLPTYHVLLEGEGLGQSLGNFKD [TRIM29] | 3.8 ± 0.085 | 3.7 ± 0.14 | – | –
LSEPDPSHTLEERVVHWYFKLLDK [SMOC2] | 2.61 ± 0.46 | 2.84 ± 0.29 | – | –
EAVLHCHQMGVVHRDLKPENLLLA [CAMK2A] | 2.64 ± 0.27 | 2.58 ± 0.38 | – | –
IQEAQSAWKDDFALNSMLRRRFRE [YJU2B] | 3.53 ± 0.14 | 3.69 ± 0.25 | – | –
ASLAAAKKQLADETLLKVDLENRC [LMNB1] | 4.35 ± 0.12 | 4.46 ± 0.24 | – | –
LYQLEGNNQITCRNGQWSEPPKCL [CFHR2] | 3.08 ± 0.29 | 2.98 ± 0.18 | – | –

Sequence | protein stability index [1] | protein stability index [2] | protein stability index (treatment: DMSO, c terminus: native) | protein stability index (treatment: MLN4924 1 uM, 8 h, c terminus: native)
VKAEPFIKWLKEAEEESSGGEEED [EIF5] | 5.3 ± 0.28 | 5.4 ± 0.15 | – | –
EKKGLHEKALQVLVDQSKKANSPL [VPS39] | 4.65 ± 0.21 | 4.67 ± 0.18 | – | –
FQDKRNLYLIMEFLPGGDMMTLLM [STK38L] | 3.34 ± 0.31 | – | – | –
TAVHGRFTRSQTLIQNGGEIDCVD [ANKRD44] | 4.34 ± 0.14 | 4.48 ± 0.19 | – | –
SDSMTDVPVDTGVAARTPAVEGLT [TPD52L2] | 5.3 ± 0.29 | 5.26 ± 0.15 | – | –
DRKARKPLVEKKRRARINESLQEL [HES6] | 4.37 ± 0.22 | 4.71 ± 0.13 | – | –
VNEFGMSGEDPTAAAPVAEVPTAA [CLPTM1] | 5.49 ± 0.26 | 5.39 ± 0.19 | – | –
VFITILIIALIALSVGQYNCPGQY [CD69] | 2.6 ± 0.38 | 2.61 ± 0.57 | – | –
SDYESIEVPDSYTGPRLSFPLLPD [PPEF2] | 4.13 ± 0.19 | 4.09 ± 0.15 | – | –
FYMFAWTHVTLLITVTQSHLVIQN [CDS1] | 3.01 ± 0.38 | 3 ± 0.3 | – | –
YEAGQVTLHNAQTQEPIFTFTASF [TRIM15] | 2.38 ± 0.17 | 2.11 ± 0.15 | – | –
VDRCGASVEAGGSVHFDGETIEGA [FEM1A] | 4.87 ± 0.24 | 4.92 ± 0.18 | – | –
NLLFKPPVESHIQKNKKILKSAKD [KMT2E] | 3.61 ± 0.099 | 3.6 ± 0.38 | – | –
RCVKSIIRQVLQGLDYLHSKCKII [SRPK2] | 2.73 ± 0.88 | 2.79 ± 0.59 | – | –
SCNTWPSMPSYSSCTVTTVQPMDR [TBX5] | 3.11 ± 0.14 | 3.09 ± 0.19 | – | –
FFIGFTALVIMWQKHYVYGPLPQS [COX4I1] | 3.22 ± 0.34 | 3.36 ± 0.57 | – | –
PLTSHILRAFVNSQIQGHKEMSKV [SNX8] | 2.3 ± 0.36 | 2.21 ± 0.3 | – | –
GDFDFDEVKFPNASDMFRRLRDAG [MYORG] | 3.98 ± 0.16 | 3.98 ± 0.2 | – | –
IRDFEARKCPVHGKTMELFCQTDQ [TRIM29] | 3.54 ± 0.28 | 3.76 ± 0.28 | – | –
ETQEQDVDLVQKYLEKYYNLKNDG [MMP1] | 3.99 ± 0.38 | 3.92 ± 0.3 | – | –
VGYTALVGSDAESWGWDLGRSRLY [SPSB4] | 2.21 ± 0.076 | 2.56 ± 0.48 | – | –
RQRCMPEEDLQSQSETQGLEGAQA [MAGEA10] | 5.44 ± 0.28 | 5.44 ± 0.082 | – | –
FSDPSQSDPETKDFWLNMAALTEA [FCHO1] | 3.4 ± 0.47 | 3.79 ± 0.37 | – | –

Sequence | protein stability index [1] | protein stability index [2] | protein stability index (treatment: DMSO, c terminus: native) | protein stability index (treatment: MLN4924 1 uM, 8 h, c terminus: native)
AFGKICHMVSDGSWVVRVQAAKLL [INTS4] | 2.74 ± 0.49 | 2.88 ± 0.58 | – | –
KLTQRLEEMTQRMEALENRLRYR [MATN2] | – | – | 2.7 ± 0.51 | 2.79 ± 0.34
PTVTIEGFLQALSLAVDKQFEERK [TRIP13] | 2.29 ± 0.61 | 2.13 ± 0.44 | – | –
NRFVQLSGRPHLPGKKKIRWDPVR [KLHDC10] | 2.5 ± 0.6 | 2.49 ± 0.52 | – | –
TPTSLSSLSNAVANTMEHLSLLDN [FBXO33] | 4.44 ± 0.065 | 4.44 ± 0.21 | – | –
TRHVFTCGRRGIKVWSLTGQVAED [TLE6] | 2.62 ± 0.14 | 2.68 ± 0.25 | – | –
SGEKYDPDANTWTALPPMNEARHN [GAN] | 4.61 ± 0.55 | 4.8 ± 0.13 | – | –
EAAPRQCIELYFDEKYSIEPSWEC [NETO1] | 2.48 ± 0.2 | 2.73 ± 0.57 | – | –
FGEDYYGPSRSRHRRRSRERGPYR [CLK3] | 3.27 ± 0.78 | 4.29 ± 0.89 | – | –
FKAKEAAALGSRGSCSTEVEKETQ [ATP6V1G1] | 2.94 ± 0.44 | 3.26 ± 0.27 | – | –
ATNDDPWGPSGQLMGEIAKATFMY [CLINT1] | 2.34 ± 0.38 | 2.32 ± 0.27 | – | –
GIVGGFTQMIREGGARSLWRGNGI [SLC25A25] | 2.22 ± 0.093 | 2.27 ± 0.2 | – | –
IEDAAEPKEPAPPNGSAAEPPTEA [PALM] | 5.54 ± 0.24 | 5.47 ± 0.22 | – | –
SSSSGPGHGEPDVLKDELQLYGDA [TMEM40] | 5.3 ± 0.15 | 5.32 ± 0.19 | – | –
HIENGPFSLEQQLDDEDDDEEDCP [SRPK2] | 5.44 ± 0.4 | 5.46 ± 0.2 | – | –
YMDRFTVAGVLPDIEQFFNIGDSS [SPNS1] | 2.71 ± 0.34 | 2.99 ± 0.18 | – | –
PVGSCCSSPAGLSREYKLVMLGAG [RIT1] | 2.54 ± 0.44 | 2.24 ± 0.35 | – | –
LTRHTKKTHSQELMKESLQTGDLL [PLAGL1] | 4.35 ± 0.28 | 4.59 ± 0.12 | – | –
QSSGKILLCPLCQEEEQAETPMAP [TRIM15] | 3.79 ± 0.36 | 4.28 ± 0.31 | – | –
KCRSTISAEKCGPPPPIDNGDITS [CFHR2] | 4.52 ± 0.071 | 4.45 ± 0.29 | – | –
